Experiment [1] concerns the target T1, CCR10 (Homo sapiens, UniProt Q9NPB9).
T1 construct: Full length CCR10 expression constructs were made in pIRESpuro expression vector; expressed in transfected cells; HEK293-CCR10)
T1 sequence (Q9NPB9 1-350): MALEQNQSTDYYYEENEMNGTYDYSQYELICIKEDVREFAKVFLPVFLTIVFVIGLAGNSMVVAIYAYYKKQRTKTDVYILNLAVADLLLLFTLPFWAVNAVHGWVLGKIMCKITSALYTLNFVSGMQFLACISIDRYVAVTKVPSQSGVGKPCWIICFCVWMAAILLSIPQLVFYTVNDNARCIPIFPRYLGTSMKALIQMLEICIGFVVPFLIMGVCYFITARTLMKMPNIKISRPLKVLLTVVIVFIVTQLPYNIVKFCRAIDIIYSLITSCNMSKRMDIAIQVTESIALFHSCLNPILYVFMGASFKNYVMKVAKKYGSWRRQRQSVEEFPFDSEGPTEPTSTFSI
Nature of the experiment: Homologous competition binding of radiolabeled chemokine on HEK293-CCR10 cells. The source says:
Human, viral and murine recombinant chemokines were obtained from R&D Systems (Minneapolis, Minn.; http://cytokine.rndsystems.com/cyt_cat/cyt_cat.html). ^125I-labeled ELC and TECK were obtained from Amersham. Full length CCR10 expression constructs were made in pIRESpuro expression vector (Clontech, Palo Alto, Calif.) with a FLAG epitope tag and prolactin signal sequence, and used to generated stable transfectants in HEK293 cells. Transient and stable transfections for CCR10 and stalkokines were done using Superfect reagent (Qiagen, Valencia, Calif.) following manufacturer's protocol. Stably-transfected cells were generated by selection in 2 ug/mL puromycin for 7 days, and expression was confirmed by FACS analysis of the FLAG epitope using anti-FLAG M1 (Sigma, St. Louis, Mo.) and 2′ anti-mouse PE conjugate (Coulter Immunotech, Miami, Fla.).
(§1) Furthermore ELC-SK mediated adhesion was abolished in the presence of soluble native ELC as a competitor (FIG. 3A, top row). […] Moreover, radiolabeled ELC was used in a traditional homologous competition assay in the presence of increasing concentrations of unlabeled ELC. […] Taken together, the stalkokine-based adhesion and radiolabeled ligand binding/homologous competition assays indicate that CCR10 is a new chemokine receptor that bound a novel compliment of chemokines.

For experiment [2], the target named is T1, CCR10. Put plainly: Spectrum of ligands that bind to CCR10. The format is binding.
Excerpt: as §1

Experiment [3] deals with T2, CCR8 (Homo sapiens, UniProt P51685).
T2 construct: host or cells: mouse myeloma NSO
Nature of the experiment: Binding of CCR8-NSO cells to immobilized stalkokines. As to the method:
(§2) In one set of experiments, five 8 well chamber slides (Lab-Tek II, Nalge Nunc International, Rochester, N.Y.), 250 ul of 10 ug/ml anti-his antibody (R&D Systems, Minneapolis, Minn.) in PBS was added to each well and incubated at room temperature overnight (typically 16 hours). Following, the liquid in each well was aspirated and washed once for approximately 5 minutes with 500 ul of PBS. The wells were then “blocked” (blocked for any additional protein binding sites) with the addition of 250 ul of blocking solution (2% fetal bovine serum, 0.5% BSA in PBS) and incubation for 1 hour at room temp (e.g., 20° C.). The liquid in each well was aspirated and 250 ul of supernatant containing the chemokine-stalk-immobilization domain fusion proteins (SDF1a-FRAC, finetaxin-FRAC, CCL27-FRAC, 1309-FRAC, MIP3a-FRAC, ELC-FRAC, SLC-FRAC, MDC-FRAC, TARC-FRAC, or BRAK-FRAC) or the control supernatant was added to two wells. Each slide contained two wells with control supernatant (from mock-transfected cells) and two wells with the positive control SDF1a (which binds the ubiquitous chemokine receptor CXCR4). The four other wells were for experimental samples. The supernatants were incubated for one hour at room temperature (typically 20° C.), then incubated for an additional hour at 37° C. […] The slide was then ready for addition of cells for assay. […]

The target of experiment [4] is T3, CCR7 (Homo sapiens, UniProt P32248).
T3 construct: host or cells: mouse myeloma NSO
T3 sequence (P32248 25-378): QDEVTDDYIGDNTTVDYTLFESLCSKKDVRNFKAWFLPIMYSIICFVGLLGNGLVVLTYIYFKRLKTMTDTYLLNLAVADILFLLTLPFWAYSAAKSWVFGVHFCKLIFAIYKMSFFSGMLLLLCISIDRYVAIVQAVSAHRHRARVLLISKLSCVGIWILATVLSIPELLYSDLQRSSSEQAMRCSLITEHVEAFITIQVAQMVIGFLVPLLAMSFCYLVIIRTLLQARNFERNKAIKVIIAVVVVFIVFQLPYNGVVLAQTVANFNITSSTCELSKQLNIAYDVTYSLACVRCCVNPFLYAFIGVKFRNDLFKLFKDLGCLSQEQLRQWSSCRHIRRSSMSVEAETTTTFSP
Nature of the experiment: Binding of CCR7-NSO cells to immobilized stalkokines. On the procedure: as §2

T2 sequence (P51685 whole entry): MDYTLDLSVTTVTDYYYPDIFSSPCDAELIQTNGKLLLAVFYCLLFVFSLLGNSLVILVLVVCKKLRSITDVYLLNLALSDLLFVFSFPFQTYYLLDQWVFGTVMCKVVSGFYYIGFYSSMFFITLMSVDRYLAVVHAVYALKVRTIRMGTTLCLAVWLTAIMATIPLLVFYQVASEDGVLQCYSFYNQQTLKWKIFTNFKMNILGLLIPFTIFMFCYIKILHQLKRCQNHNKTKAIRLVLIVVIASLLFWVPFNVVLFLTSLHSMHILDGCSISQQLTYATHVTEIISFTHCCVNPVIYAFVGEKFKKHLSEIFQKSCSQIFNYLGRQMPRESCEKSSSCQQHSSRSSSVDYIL

B1: TECK: thymus expressed chemokine, soluble recombinant (protein)
chain: QGVFEDCCLAYHYPIGWAVLRRAWTYRIQEVSGSCNLPAAIFYLPKRHRKVCGNPKSREVQRAMKLLDARNKVFAKLHHNTQTFQAGPHAVKKLSSGNSKLSSSKFSNPISSSKRNVSLLISANSGL
B1: the “Binding of radiolabeled chemokine in homologous competition with cold chemokine” value in experiment [1] is reported as “Nearly identical results”. For the same molecule, the “Affinity of binding to CCR10” value in experiment [2] was “high affinity”.

B2: I309: stalkokine form of chemokine I309 (protein)
chain: KSMQVPFSRCCFSFAEQEIPLRAILCYRNTSSICSNEGLIFKLKRGKEACALDTVGWVQRHRKMLRHCPSKRKEFGGTFEKQIGEVKPRTTPAAGGMDESVVLEPEATGESSSLEPTPSSQEAQRALGTSPELPTGVTGSSGTRLPPTPKAQDGGPVGTELFRVPPVSTAATWQSSAPHQPGPSLWAEAKTSEAPSTQDPSTQASTASSPAPEENAPSEGQRVWGQGQSPRPENSLEREEMGPVPAHTDAFQDWGPGSMAHVSVVPVSSEGTPSREPVASGSWTPKAEEPIHATMDPQRLGVLITPVPDAQA
modifications: left off: small tags and cut ends
In the case of B2, the “Binding to Stalkokine form” value in experiment [3] is listed as “yes, yes”.

B3: SLC: secondary lymphoid-tissue chemokine, soluble recombinant (protein, UniProt O00585 24-134, looked up)
C-C motif chemokine 21: SDGGAQDCCLKYSQRKIPAKVVRSYRKQEPSLGCSIPAILFLPRKRSQAELCADPKELWVQQLMQHLDKTPSPQKPAQGCRKDRGASKTGKKGKGSKGCKRTERSQTPKGP
As to B3, the “Affinity of binding to CCR10” value in experiment [2] was “high affinity”. Further, the “Binding to Stalkokine form” value in experiment [4] was “no”.

For the origin of these results see patent US6699677B1, “Tethered ligands and methods of use” (ChemoCentryx, Inc., priority 1999, dated 2004).
